Test: soluble on expression in E. coli; label from the status in PepcDB or PDB records

Row | Sequence | soluble on expression in E. coli
1 | RPFMQKRAQKALPHVSTGADALVGRKVLVTETIDPTTDKGRVAVDGDVWTARSLTGEVIEKGMRVEIVSYESIVLNVVVLGNDKQ | not soluble
2 | MDSVIQKRIFVGNIFHNADDCYSELLDRFGKFGDCQDFQFEKHNHFAFIDIRFNDEADFNKLRKSFNNVKFKGNILKVDEAKPNWESTWAVQHAKDLKEDIILNAKMKKKNWQHYKKMENVAKSWKDHKEVIAGRMREAPRKRSQLRNITFRINVNGSLKVYKCYKTKLWGYERNKELNDLVYKFTNNFWKNGYNHIVDRLDYSRAVKTVRFKNGLKQLTVSKDENVCSGEMDSDENMSEEEKEKNNVILNDLLKDFDFDKPMTLNDSDEELLTEQRKGEEEEEEEEEKEVNAPEYENVNKTKDQSTLPQEKPEERKEQDEGDGQEDNEFIPTFTKEIGQGTISNTETLRNLFNPNEAEPVSQFKLIEDSDNDIDHAKDVDVNQLEEEVSKSSDTLGLTSAPVPHVSRDKDNKNFLFFPHLQSPFLVGQTQLSKVRAPGRETMLSNWDEEFWANRGNWTRDMRRKMKDALKHRKRKQSKSGLLL | not soluble
3 | MGSDKIHHHHHHSCLDDDDSSSDSLVISTINLISPDSKDFYFTLDDGKTMFPSNGNGWISDKNKDGQRAFVIFKELEEPVKGYDYNIQVREIKEILTKEIVTMGEGENTEEKIGDDKINSTYMWITQDKKYLTIEFQYYGTHSEDKKHFLNLVINNKEAEPAADDANDEYIDLEFRHNDEGDTADRLGEGYISFKLDKIQDQMKGKKGLRIRVKTLYNGEKFYEVKFPSSN | not soluble
4 | MRFFKHYAPSMIAKHISRLFNGKIHIHGIGEFRFKDGQLVAPTEAEREHYKMVKEINSEITRLKMAYLEHHHHHH | not soluble
5 | MNTTANPSNIIVGLSGGVDSSVTAALLKQQGYQVRGVFMQNWEDDDNDEYCSIKQDSFDAIAVADIIGIDIDIVNFAAQYKDKVFAYFLQEYSAGRTPNPDVLCNAEIKFKCFLDYAVGQGADTIATGHYARKEVRNGVHYLLKGLDRNKDQSYFLYRLKPFQLERAIFPLGGLEKPEVRRLAAEFKLPTAAKKDSTGICFIGERPFREFLQKYLPTDNGKMVTPEGKTVGEHVGLMFYTLGQRKGLGIGGAGEPWFVAAKDLTKNELIVVQGHDHPLLYTRSLVMNDLSFTLPERPKAGRYTCKTRYRMADAPCELRYLDDETAELVFDEPQWAVTPGQSAVLYDGDICLGGGIIQTTDKPVIITR | not soluble
6 | MSGEESMPDEEQKQSEEEEEMIRKRTLAMRKKVEEIMRNGAGLVRESNGLPKAGADYELYNSYPTFNTFMKRSEQRLNALMNKVTKSIGCAMRVPDVGSSVEHYTECVIEAQDNIAERAATLHEALKKAELDEIVKVPEFITKAAPTNRKTEAEVSAAMRTFSANIGTVLAEKFRERREEAAQMVVLEKPQKTYNISSDNSQAPFSSKLTVKHHAIEKRTGIVLHDDDESGRRDWISAETETEEEHPYIAEILHFKVPEAQLKSAECLKFTALKDTPLTMIDTKEKLEALTKTLNSVKEFAVDLEHHQMRSYLGLTCLIQISTRDEDFIIDPFPIWDHVGMLNEPFANPRILKVFHGSDSDVLWLQRDYGVHVVNLFDTYVAMKKLKYPKFSLAYLTLRFADVVLDKQYQLADWRARPLRNAMINYAREDTHYLLYSYDMLREQLLKQDTKDLANVYSESSDLCIKVYKKPVFNPKGYLTEIKFRFTLNTRQDYALTHLFKWRDVVARAEDESPHFVLPNHMMLSLSETLPRDVGGIYACCNPLPYFVKQRTGDILKIIVEARDVKLEKVGLSAKERNDAQEARGVMNDTMDHITSVLKSKIDFSHTRFDEERGEIYIDKTDEGMDIELKDHKESLLSVLQTAEIPSVETMIVVEKGKKSDNQKVKKLLNELDKFVTPFECYQMMMITKEKQEEEERKEAERKKLEEGDLPKTMFSHHDAPINRKPEFDAKLLNVDTLKLVPDDPNKPKDPEPSPMEESSSEPQIFDPSRFTDDQLLSKKAMKRKRDAARRNIDVSVVLGESSSSSDPKKKKSDDDAPVEDFDYEKADSSAFEKPVRDNNADFDPFHQKYRLKNKTKKNMAMKKSSNRQGTINYKK | not soluble
7 | MSPIPTTAETRKINEAAELMVNFWMSFACVEKEKEQMASIFEKMNGLFAAPSTTSTASLFGKYEGLFETTEVATEDFNTLWWNYPAQPSFPQLPVFVRSPIDSIKIYGAIQHDFGMSEDESVQYPSPISPSSDSSSETITHVSPGYLLQEVFLQRAVIEEQKKIIDGFHEIQKLNKKLAALHNNFTY | not soluble
8 | RAETAVQRTEDRYHNLVDTAPIPILLFDRDWKALYANEAAIAFLDADSFTEIAGKKASDFLHPDERDAARKRFQRLMREGVSVPEREYRVMTAEGEVKTATIATAPGYYRGEQVAQAMVYR | soluble
9 | MSDNDIIDDDVLNIEDMTGDDADLSAIEGDLNEIEEEQKKLKAIQNEMVGHMNLNTSSQSNSSQSLLTPEEKAEADAKSVYVGNVDYGATAEEIEQHFHGCGSVSRVTIQCDRFSGHPKGFAYVEFTEKEGMQNALAMTDSLLRGRQIKVDPKRTNKPGMSTTNRPPFRGRGGRGRGNVIVKYVYAGGFRPRGRGARRRPGFAPY | soluble
10 | MAPLLHQVSNYGYGKCVTVRFCDGKTYDAKDGESRAINRDLNVGAVKIYRDSKDEDQAYVLNYFPYNLELNDNRGKNKGLQGYRVLIWKQYGTINLDVFYDEMKIWCKTNDLGIYTSDGELKYYKSVIARHREEGGISVIGFETAEGATTAAAKKEEDENEEASAKVKEANEEESTNA | soluble
11 | GMEWQAEQAYNHLPPLPLDSKLAELAETLPILKACIPARAALAELKQAGELLPNQGLLINLLPLLEAQGSSEIENIVTTTDKLFQYAQEDSQADPMTKEALRYRTALYQCFTQLSNRPLCVTTALEICSTIKSVQMDVRKVPGTSLTNQATGEVIYTPPAGESVIRDLLSNWEAFLHNQDDVDPLIKMAMAHYQFEAIHPFIDGNGRTGRVLNILYLIDQQLLSAPILYLSRYIVAHKQDYYRLLLNVTTQQEWQPWIIFILNAVEQTAKWTTHKIAAARELIAHTTEYVRQQLPKIYSHELVQVIFEQPYCRIQNLVESGLAKRQTASVYLKQLCDIGVLEEVQSGKEKLFVHPKFVTLMTKDSNQFSRYAL | soluble
12 | MSLTQTAFRSQLLTFNGDPAQSSQAAIYETDGLLIVDDGKVVAAGPYAQLAATLARDAIVHELRDKLIVPGFIDTHIHYPQTDMIASPAPGLLPWLDKYTFPTERQFGDPEHAREVADFFVDELLACGTTSALVYCTVHKQSADALFAASDARDLRMIAGKVLMDRNCPEFLRDTAQSGYDDSAELIDRWHGKGRQMYALTPRFAPTSTEAQLEACGELARRHPDVFVQSHVAENVDEVKWVGELFPGHRSYLDIYDRYGLLRPRAVYGHCIHLDDEDRRRMAETRTVVAHCPTSNFFLGSGLFDFDKAGEYDVPVTLATDVGGGTSFSMLQTMNEAHKVARLSGHHLTATRMFWLATAGAAQALDLADTVGTLAPRTEADFVVLDPQATPLLARRTKRADSLEELLFAFALLGDDRAVYRTYAAGQLVHERGAAPRPAAEGHHHHHH | soluble
13 | MQSVDVAIVGGGMVGLAVACGLQGSGLRVAVLDHVVPQPLANDASPQLRVSAINAASEKLLTRLGVWSNIVARRASCYHGMEVRDKDSFGRITFDDASMGYSHLGHIVENSVIHYALWQKAQQAADITLMAPAELQQVAWGENDAFLTLKDGAMLTARLVIAADGANSWLRNKADIPLTFWDYRHHALVATIRTEEPHGAVARQVFHGEGILAFLPLSDPHLCSIVWSLSPQDAERMQQSGDEAFNQALTIAFDNRLGLCRLESERQVFPLTGRYARQFAAHRLALVGDAAHTIHPLAGQGVNLGFMDAAELVDNLRRLQRQGKDIGQHLYLRRYERSRKHSAAMMLAGMQGFRDLFAGENPAKKLLRDIGLKLADTLPGVKPQLLRQAMGLNDLPQWLRLEHHHHHH | not soluble
14 | MSDSDAMTDPNAVSYSNAIVVLCTAPDEASAQNLAAQVLGEKLAACVTLLPGATSLYYWEGKLEQEYEVQLLFKSNTDHQQALLTYIKQHHPYQTPELLVLPVRDGDKDYLSWLNASLL | not soluble
15 | MKRTIFLLMSILLLLTACGDGHKQTSSDKEQSEHKDNHNKNQVKQIATDKKVQGDNYRTILPFKESQARGLLQDNMANGYNGEDFESGLLELSKEIFPTNKYLYQDGQYLDKKTINAYLDPKYTKKEIDKMSEKEKKSKNANENLGLNPSHNGETDEEKIAKNSPAYLSNILEQDFYGNSDSKGKNIKGMTIGLAMNSVYYYKKEKDGETFSKDLSDKEIEKQGKQMASEMLSRLRENSDLKDIPIHFAIYKQSSQDSITPGEFIVGTTVEEGKTKINSWDNINEKAALIPSSTAADYDETLNNNFKQFNDNLQSYFSNFTQAVGKVKFVNKKAKQLTVDLPIDYYGQAETIGITQYVTEQAEKYFDKLDEYEIRIKDGNTPRALISKTKDDKEPQVHIYHN | not soluble
16 | MLTRCQARLLGLTSGEDGGASGSSTSSVPQSPTGVATSGLPRVSGYSIACEASSATSAKPGDPPPFIRRLSLAATSSSSASTAARGCRTNSFFEPSASASKAALHVNSGSGGDGGGGRARLGARPTDAPLSKAQAAIDYWTAASTTAGPSIWFAKDSASPWRALHVSSPKAAVHVTGSFGATLKSADGSSLAGCSARLTAAQLRVRWCGVTRNCSSLHASTRATANGGGAPRASANSVHGVHTAQLSIAACPASTPPRTEFVIEARAGIATSGGDSTGVAQQTDRALAPLNVASRRSLALFTSPFYADVAAPALSASAAALGATEAAALLPVMHQISTQRAAAAALALRQRKEDVRAQRQRRICHEVHNQVYMKAHEVRMRLLFGLSGTDSDAATPAPSGTLAQGHAVAPSAPSKAALGEDHIAADEEAYLQSLNPSKSDEEAKVLRVVASIDAALRRHLASAYKDASQPTFPSESSSADQRVRAADAVADHHHHHHFTDGFAARQPAILEAVIADATRRVESFTGELLPYQQEGVRWLLRLTAVEHMGGILADDMGLGKTAQTVVYLSCYKDMVERVVQGLLEELEQRHARLCQRALGLTVTATGSGALAREAGSVEEGEMPSWLTWCAEATAKGEYISRRTEGRLQRSSSTIQPLMRGVAHGDSIAASAPLAATVEPASTAATPELAAARAWWLHKTCEAGEAMAVAAGGGQGRGRHSCG | not soluble
17 | MGSSHHHHHHMTYEYILVRYGEMTTKGKNRSKFVSTLKDNVKFKLKKFPNIKIDATHDRMYIQLNGEDHEAVSERLKDVFGIHKFNLAMKVPSELEDIKKGALAAFLQVKGDVKTFKITVHRSYKHFPMRTMELLPEIGGHILENTEDITVDVHNPDVNVRVEIRSGYSYIMCDERMGAGGLPVGVGGKVMVLLSGGIDSPVAAYLTMKRGVSVEAVHFHSPPFTSERAKQKVIDLAQELTKYCKRVTLHLVPFTEVQKTINKEIPSSYSMTVMRRMMMRITERIAEERNALAITTGESLGQVASQTLDSMHTINEVTNYPVIRPLITMDKLEIIKIAEEIGTYDISIRPYEDCCTVFTPASPATKPKREKANRFEAKYDFTPLIDEAVANKETMVLQTVEVVAEEEKFEELF | soluble
18 | MSEEDKAKKLENLLKLLQLNNDDTSKFTQEQKKAMKDHKFWRTQPVKDFDEKVVEEGPIDKPKTPEDISDKPLPLLSSFEWCSIDVDNKKQLEDVFVLLNENYVEDRDAGFRFNYTKEFFNWALKSPGWKKDWHIGVRVKETQKLVAFISAIPVTLGVRGKQVPSVEINFLCVHKQLRSKRLTPVLIKEITRRVNKCDIWHALYTAGIVLPAPVSTCRYTHRPLNWKKLYEVDFTGLPDGHTEEDMIAENALPAKTKTAGLRKLKKEDIDQVFELFKRYQSRFELIQIFTKEEFEHNFIGEESLPLDKQVIFSYVVEQPDGKITDFFSFYSLPFTILNNTKYKDLGIGYLYYYATDADFQFKDRFDPKATKALKTRLCELIYDACILAKNANMDVFNALTSQDNTLFLDDLKFGPGDGFLNFYLFNYRAKPITGGLNPDNSNDIKRRSNVGVVML | soluble

Source: the DeepSol protein solubility set
